Key:
chicken ovalbumin = target: T1, chicken ovalbumin (chicken, UniProt P01012); assay: FP, PBS pH 7.4
T1 chain: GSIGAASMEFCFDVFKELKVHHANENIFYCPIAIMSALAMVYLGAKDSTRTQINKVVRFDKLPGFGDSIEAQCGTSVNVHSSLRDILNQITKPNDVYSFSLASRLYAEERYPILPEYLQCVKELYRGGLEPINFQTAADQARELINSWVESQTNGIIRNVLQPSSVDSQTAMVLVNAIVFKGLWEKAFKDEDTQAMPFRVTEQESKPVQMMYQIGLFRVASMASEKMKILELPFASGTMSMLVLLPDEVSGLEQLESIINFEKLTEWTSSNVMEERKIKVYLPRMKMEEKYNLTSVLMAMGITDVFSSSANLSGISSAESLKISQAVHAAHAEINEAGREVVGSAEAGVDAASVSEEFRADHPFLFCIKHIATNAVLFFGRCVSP

pig serum albumin = target: T2, pig serum albumin (pig, UniProt P08835); assay: FP, PBS pH 7.4
T2 chain: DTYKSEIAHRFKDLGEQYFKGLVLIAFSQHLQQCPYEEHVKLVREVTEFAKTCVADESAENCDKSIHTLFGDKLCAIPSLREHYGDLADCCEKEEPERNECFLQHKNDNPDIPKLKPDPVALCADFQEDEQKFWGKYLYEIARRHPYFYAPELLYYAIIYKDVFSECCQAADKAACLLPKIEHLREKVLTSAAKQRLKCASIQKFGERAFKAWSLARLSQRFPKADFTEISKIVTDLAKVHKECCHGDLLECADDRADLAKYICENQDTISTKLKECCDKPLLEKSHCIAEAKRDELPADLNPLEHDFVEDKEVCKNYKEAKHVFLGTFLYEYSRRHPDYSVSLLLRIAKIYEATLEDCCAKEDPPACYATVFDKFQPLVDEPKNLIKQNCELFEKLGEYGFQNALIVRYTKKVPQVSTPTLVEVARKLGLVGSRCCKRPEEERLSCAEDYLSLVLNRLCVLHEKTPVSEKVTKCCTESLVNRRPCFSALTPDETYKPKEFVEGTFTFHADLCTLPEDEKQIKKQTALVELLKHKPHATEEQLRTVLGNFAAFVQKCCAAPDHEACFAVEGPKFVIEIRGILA

mouse serum albumin [1] = target: T3, mouse serum albumin (mouse, UniProt P07724); assay: FP, PBS pH 7.4
bovine serum albumin = bovine serum albumin (bovine, UniProt P02769); assay: FP, PBS pH 7.4
rhesus serum albumin = target: T4, rhesus serum albumin (rhesus macaque, UniProt Q28522); assay: FP, PBS pH 7.4
T4 chain: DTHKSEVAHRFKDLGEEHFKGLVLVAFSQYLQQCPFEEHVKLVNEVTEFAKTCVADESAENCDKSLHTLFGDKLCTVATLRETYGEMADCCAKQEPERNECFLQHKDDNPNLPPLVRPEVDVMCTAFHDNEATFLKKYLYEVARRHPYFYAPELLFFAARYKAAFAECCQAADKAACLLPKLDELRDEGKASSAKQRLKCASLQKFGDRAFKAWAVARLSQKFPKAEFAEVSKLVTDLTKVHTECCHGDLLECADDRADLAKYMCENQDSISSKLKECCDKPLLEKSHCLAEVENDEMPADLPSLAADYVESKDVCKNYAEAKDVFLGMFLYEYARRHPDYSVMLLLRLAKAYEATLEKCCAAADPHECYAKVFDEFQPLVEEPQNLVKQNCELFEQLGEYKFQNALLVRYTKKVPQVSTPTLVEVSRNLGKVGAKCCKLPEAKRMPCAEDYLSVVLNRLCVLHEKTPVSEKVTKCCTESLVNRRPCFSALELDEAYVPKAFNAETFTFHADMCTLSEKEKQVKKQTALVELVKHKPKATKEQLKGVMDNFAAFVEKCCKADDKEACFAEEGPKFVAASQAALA

[2] = target: T5, human serum albumin (HSA) (human, UniProt P02768); assay: FP, PBS pH 7.4
mouse serum albumin [3] = target: T3, mouse serum albumin; assay: FP, pH 6.2, no NaCl
[4] = target: T5, human serum albumin (HSA); assay: FP, pH 6.2, no NaCl
[5] = target: T5, human serum albumin (HSA); assay: FP, pH 6.2, no NaCl; remark: listed apart in the source
[6] = target: T5, human serum albumin (HSA); assay: FP, pH 7.4, 0.14 M NaCl
[7] = target: T5, human serum albumin (HSA); assay: FP, pH 6.2, 0.14 M NaCl
[8] = target: T5, human serum albumin (HSA); assay: FP, pH 7.4, 0.14 M NaCl, 0.1% caprylate

T3 sequence (P07724 25-608): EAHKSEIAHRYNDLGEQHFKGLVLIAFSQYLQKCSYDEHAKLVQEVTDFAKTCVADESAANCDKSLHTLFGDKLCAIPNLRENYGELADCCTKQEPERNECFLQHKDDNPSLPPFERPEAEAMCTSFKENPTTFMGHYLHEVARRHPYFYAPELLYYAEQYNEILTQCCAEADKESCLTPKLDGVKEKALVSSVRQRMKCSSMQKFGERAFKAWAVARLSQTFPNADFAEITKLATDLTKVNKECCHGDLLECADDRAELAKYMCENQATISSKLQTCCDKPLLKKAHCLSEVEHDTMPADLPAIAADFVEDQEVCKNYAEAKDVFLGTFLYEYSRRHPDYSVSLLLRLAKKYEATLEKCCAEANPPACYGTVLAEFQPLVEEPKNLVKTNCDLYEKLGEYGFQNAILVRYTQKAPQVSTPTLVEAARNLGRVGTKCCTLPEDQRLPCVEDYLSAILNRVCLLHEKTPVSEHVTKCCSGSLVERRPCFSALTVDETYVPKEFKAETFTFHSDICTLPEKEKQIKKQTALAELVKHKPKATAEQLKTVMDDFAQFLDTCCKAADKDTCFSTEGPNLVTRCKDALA
bovine serum albumin, sequence (P02769 25-607): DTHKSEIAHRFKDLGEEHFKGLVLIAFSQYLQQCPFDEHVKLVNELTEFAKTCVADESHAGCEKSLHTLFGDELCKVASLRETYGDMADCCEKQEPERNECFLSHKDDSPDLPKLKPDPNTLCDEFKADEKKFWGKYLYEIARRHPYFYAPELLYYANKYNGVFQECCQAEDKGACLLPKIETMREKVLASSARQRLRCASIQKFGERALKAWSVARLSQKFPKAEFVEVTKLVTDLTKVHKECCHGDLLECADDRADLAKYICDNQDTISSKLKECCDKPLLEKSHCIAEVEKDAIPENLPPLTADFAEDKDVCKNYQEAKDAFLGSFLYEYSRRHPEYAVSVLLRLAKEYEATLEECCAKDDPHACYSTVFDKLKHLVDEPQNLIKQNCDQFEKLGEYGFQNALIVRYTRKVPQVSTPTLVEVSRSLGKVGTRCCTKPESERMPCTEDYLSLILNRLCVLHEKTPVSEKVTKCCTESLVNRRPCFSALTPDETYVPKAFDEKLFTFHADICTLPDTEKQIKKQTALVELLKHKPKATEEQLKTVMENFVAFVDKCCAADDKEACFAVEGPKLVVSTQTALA

Kd (chicken ovalbumin): > 200 µM | Kd (pig serum albumin): > 200 µM | Kd (mouse serum albumin [1]): > 200 µM | Kd (bovine serum albumin): > 200 µM | Kd (rhesus serum albumin): 82 µM | Kd [2]: 84 µM | Kd (mouse serum albumin [3]): > 200 µM | Kd [4]: 0.9 µM | Kd [5]: 0.9 µM | Kd [6]: 84 µM | Kd [7]: 9 µM | Kd [8]: 75 µM
B1: DX-321 (peptide)
chain: AEGTGDRNMCKFSWIRSPAFCARADPEXK
modifications: disulfide cyclic, N-acetyl, C-amide, X = 6-aminohexanoic acid, fluorescein on Lys
